This note sets out measurements from US20140057840A1, “ANTI-ANDROGENIC AGENT, SEBUM SECRETION BLOCKER, HAIR GROWTH STIMULANT, AND FOOD OR BEVERAGE” (LOTTE CO., LTD., priority 2009, published 2014).

Assay [1] deals with T1, androgen receptor (Mus musculus, UniProt P19091).
T1 construct: An androgen-dependent mouse breast cancer cell SC-3 cell; endogenous in cells; host or cells: SC-3 mouse breast cancer cells
T1 sequence (P19091 1-899): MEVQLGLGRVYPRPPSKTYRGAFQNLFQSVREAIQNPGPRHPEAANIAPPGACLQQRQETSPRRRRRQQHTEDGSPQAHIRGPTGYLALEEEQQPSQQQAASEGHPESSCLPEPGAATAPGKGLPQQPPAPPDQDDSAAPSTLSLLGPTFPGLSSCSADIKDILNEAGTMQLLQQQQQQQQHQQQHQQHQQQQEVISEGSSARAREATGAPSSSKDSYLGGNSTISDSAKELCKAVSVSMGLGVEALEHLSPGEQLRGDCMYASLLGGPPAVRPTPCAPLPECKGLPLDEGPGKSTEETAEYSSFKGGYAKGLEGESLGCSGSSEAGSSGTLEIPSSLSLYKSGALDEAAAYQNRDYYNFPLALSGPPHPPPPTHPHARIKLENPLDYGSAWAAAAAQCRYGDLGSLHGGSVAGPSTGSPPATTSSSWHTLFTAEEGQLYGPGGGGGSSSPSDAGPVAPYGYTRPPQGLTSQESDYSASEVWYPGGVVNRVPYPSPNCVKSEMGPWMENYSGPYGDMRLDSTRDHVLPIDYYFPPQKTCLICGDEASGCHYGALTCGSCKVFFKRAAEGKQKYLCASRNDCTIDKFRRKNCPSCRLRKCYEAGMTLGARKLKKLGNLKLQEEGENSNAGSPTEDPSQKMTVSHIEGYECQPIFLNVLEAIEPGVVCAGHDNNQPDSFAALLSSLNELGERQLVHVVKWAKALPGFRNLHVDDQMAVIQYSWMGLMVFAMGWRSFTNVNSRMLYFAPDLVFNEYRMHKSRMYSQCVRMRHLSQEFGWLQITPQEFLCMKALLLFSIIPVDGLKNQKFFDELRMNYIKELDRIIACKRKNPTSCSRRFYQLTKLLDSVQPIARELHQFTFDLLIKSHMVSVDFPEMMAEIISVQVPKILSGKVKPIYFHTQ
Kind of assay: Androgen receptor binding blocking test (DHT-dependent proliferation of SC-3 cells, MTT assay). To be noted: SC-3 cell, 10^−8M DHT, FIG. 2. In kind it is cell-based. (In general: Tetrazolium dyes change colour on reduction, which living cells bring about.)
Method: 24 Hours later, the culture medium was exchanged with HMB medium (0.1% BSA-containing Ham F12+MEM medium) to which the test sample and 10^−8M DHT were added, and the cell was cultured for 48 hours.
Then, in accordance with MTT assay, the cell proliferation was evaluated by measuring the absorbance at 570 nm, which is the absorption maximum of blue formazan.
To correct the influence of adherent cells, the absorbance at 650 nm was also measured simultaneously, and the difference between both absorbances was used as the produced amount of blue formazan. At the same time with the above, to examine the effect of the sample alone on SC-3 cell, the same culture and measurement were carried out by adding the sample alone, without adding DHT, to the HMB medium. […] Based on the measurement results, the binding blocking rate representing the anti-androgenic activity was determined using the following formula. […]
A: The absorbance when DHT was added but the sample was not added
B: The absorbance when DHT was not added and the sample was not added
C: The absorbance when DHT was added and the sample was added
D: The absorbance when DHT was not added but the sample was added

The test system of assay [2] is testosterone 5α-reductase. Kind of assay: Testosterone 5α-reductase blocking test. Format: biochemical. As to conditions: result in words; enzyme solution S-9; FIG. 1. How it is done:
1. 0.5 ml of 5 mM Tris-HCl buffer solution (pH 7.2) was added to 0.1 ml of 3.0 mM testosterone solution (dissolved in propylene glycol).
2. Further, 0.1 ml of 6.7 mM NADPH solution (dissolved in 5 mM Tris-HCl buffer solution (pH 7.2)) and 0.05 ml of a sample solution (dissolved in 50% ethanol) were added thereto, the mixture was preheated at 37° C. and 0.1 ml of an enzyme solution (S-9, Oriental Yeast Co., Ltd.) was added to incubate for 1 hour.
In this test, cow's lactoferrin was prepared to be used as the lactoferrin, and saw palmetto was used as a control.
3. Then, 3 ml of dichloromethane was added to terminate the reaction, 0.5 ml of an internal standard solution (0.1 mg/ml of p-hydroxybenzoic acid n-hexyl ester) was added thereto followed by shaking for 10 minutes, and the mixture was centrifuged at 3000 rpm for 10 minutes.
4. The dichloromethane layer was separated, collected and dried under reduced pressure. […] The residual testosterone was measured by HPLC from the obtained sample solution.
The measurement was carried out by eluting with methanol/water (65/35) and monitoring at 254 nm under the conditions of using a YMC A-302 (internal diameter 4.6×150 mm) column at a column temperature of 40° C. at a flow rate of 1 ml/min. The measurement was carried out using the internal standard substance method and the blocking rate (%) was determined using the following formula. […]

Assay [3] concerns hamster sebocytes. In words: Sebocyte culture test (sebum synthesis amount, Oil Red O staining). To be noted: medium with 1×10^−6M testosterone; for sebum synthesis amount suppressed to: about 2 weeks, FIG. 3. Format: cell-based, golden hamster. The protocol:
1. The test was carried out using a hamster sebocyte culture kit KB-1000 (manufactured by KURABO […] LTD.).
The sebocyte cell derived from the auricula of a normal golden hamster was inoculated in a 24-well plate in a density of 5.0×10^4 cells/well. During the test, the cell was cultured in medium containing testosterone in a concentration of 1×10^−6M.
2. The cell was cultured for several days until confluent, and the medium was exchanged with medium containing the test sample. The medium was exchanged with sample medium every other day and the culture was continued for about 2 weeks.
In this test, cow's lactoferrin was prepared to be used as the lactoferrin, and spironolactone was used as a control.
3. Then, using a sebum synthesis assay kit SE-3001 (manufactured by KURABO […], LTD.), a WST-8 solution was added to each well and incubated for 30 minutes at 37° C. The supernatant was assayed at a wavelength of 450 nm, and the number of viable cell was counted.
4. Further, the supernatant was stained with Oil Red O and observed under a microscope while extracted with 100% isopropanol and measured at a wavelength of 520 nm for the lipid synthesis amount.
The correction was made using the following formula, and the lipid synthesis amount per cell was compared.
Comparison of lipid synthesis amount per cell=absorbance B/absorbance A
Absorbance A: cell number measured value (450 nm)
Absorbance B: lipid synthesis amount measured value (520 nm)

B1: lactoferrin (protein, UniProt P24627 20-708, looked up)
Lactotransferrin: APRKNVRWCTISQPEWFKCRRWQWRMKKLGAPSITCVRRAFALECIRAIAEKKADAVTLDGGMVFEAGRDPYKLRPVAAEIYGTKESPQTHYYAVAVVKKGSNFQLDQLQGRKSCHTGLGRSAGWIIPMGILRPYLSWTESLEPLQGAVAKFFSASCVPCIDRQAYPNLCQLCKGEGENQCACSSREPYFGYSGAFKCLQDGAGDVAFVKETTVFENLPEKADRDQYELLCLNNSRAPVDAFKECHLAQVPSHAVVARSVDGKEDLIWKLLSKAQEKFGKNKSRSFQLFGSPPGQRDLLFKDSALGFLRIPSKVDSALYLGSRYLTTLKNLRETAEEVKARYTRVVWCAVGPEEQKKCQQWSQQSGQNVTCATASTTDDCIVLVLKGEADALNLDGGYIYTAGKCGLVPVLAENRKSSKHSSLDCVLRPTEGYLAVAVVKKANEGLTWNSLKDKKSCHTAVDRTAGWNIPMGLIVNQTGSCAFDEFFSQSCAPGADPKSRLCALCAGDDQGLDKCVPNSKEKYYGYTGAFRCLAEDVGDVAFVKNDTVWENTNGESTADWAKNLNREDFRLLCLDGTRKPVTEAQSCHLAVAPNHAVVSRSDRAAHVKQVLLHQQALFGKNGKNCPDKFCLFKSETKNLLFNDNTECLAKLGGRPTYEEYLGTEYVTAIANLKKCSTSPLLEACAFLTR
notes: cow's lactoferrin; protein present in secretory fluids such as milk, tears, saliva, bile of mammals
B1: in assay [1] (concentration of 60 ppm, 48 hours), the “binding blocking activity (binding blocking rate)” value was “about 85%”. For the same molecule, the “binding blocking activity, concentration dependence” value in assay [1] (result in words) is recorded as “concentration-dependent binding blocking activity”. The “testosterone 5α-reductase blocking activity” value in assay [2] was “no testosterone 5α-reductase blocking activity”. The “sebum synthesis amount suppressed to” value in assay [3] (10 ppm) and in assay [3] (20 ppm) was 60% each time. Also, the “sebum synthesis amount, concentration dependence” value in assay [3] (result in words, microscopic observation and absorbance measurement) is “suppressed the sebum synthesis amount in a concentration-dependent manner”.
